The text below walks through data of paper PMC6526958.

Substrate in series [1]: Nc1ncnc2c1ncn2[C@@H]1O[C@H](COP(=O)(O)O)[C@@H](O)[C@H]1O
As to the kind of experiment: purified protein, by the assay type. It counts as biochemical, human. The following applies: other: substrate AMP.

Substrate in series [2]: Nc1ncnc2c1ncn2[C@@H]1O[C@H](COP(=O)(O)O)[C@@H](O)[C@H]1O
As to the kind of experiment: radiometric CD73 assay, membrane preparations of MDA-MB-231 cells. It counts as biochemical, human. The following applies: other: substrate AMP; membrane preparation; 37.0 °C.

B1: recombinant soluble human CD73 (Homo sapiens) (protein)
chain: ELTILHTNDVHSRLEQTSEDSSKCVNASRCMGGVARLFTKVQQIRRAEPNVLLLDAGDQYQGTIWFTVYKGAEVAHFMNALRYDAMALGNHEFDNGVEGLIEPLLKEAKFPILSANIKAKGPLASQISGLYLPYKVLPVGDEVVGIVGYTSKETPFLSNPGTNLVFEDEITALQPEVDKLKTLNVNKIIALGHSGFEMDKLIAQKVRGVDVVVGGHSNTFLYTGNPPSKEVPAGKYPFIVTSDDGRKVPVVQAYAFGKYLGYLKIEFDERGNVISSHGNPILLNSSIPEDPSIKADINKWRIKLDNYSTQELGKTIVYLDGSSQSCRFRECNMGNLICDAMINNNLRHTDEMFWNHVSMCILNGGGIRSPIDERNNGTITWENLAAVLPFGGTFDLVQLKGSTLKKAFEHSVHRYGQSTGEFLQVGGIHVVYDLSRKPGDRVVKLDVLCTKCRVPSYDPLKMDEVYKVILPNFLANGGDGFQMIKDELLRHDSGDQDINVVSTYISKMKVIYPAVEGRIKFS
By Km is commonly meant the concentration of substrate that gives half-maximal velocity. For B1, in series [1], the Km came to 17.0 ± 2.1 µM.

B2: membrane-bound CD73 (MDA-MB-231 membrane preparation) (Homo sapiens) (protein)
chain: WELTILHTNDVHSRLEQTSEDSSKCVNASRCMGGVARLFTKVQQIRRAEPNVLLLDAGDQYQGTIWFTVYKGAEVAHFMNALRYDAMALGNHEFDNGVEGLIEPLLKEAKFPILSANIKAKGPLASQISGLYLPYKVLPVGDEVVGIVGYTSKETPFLSNPGTNLVFEDEITALQPEVDKLKTLNVNKIIALGHSGFEMDKLIAQKVRGVDVVVGGHSNTFLYTGNPPSKEVPAGKYPFIVTSDDGRKVPVVQAYAFGKYLGYLKIEFDERGNVISSHGNPILLNSSIPEDPSIKADINKWRIKLDNYSTQELGKTIVYLDGSSQSCRFRECNMGNLICDAMINNNLRHTDEMFWNHVSMCILNGGGIRSPIDERNNGTITWENLAAVLPFGGTFDLVQLKGSTLKKAFEHSVHRYGQSTGEFLQVGGIHVVYDLSRKPGDRVVKLDVLCTKCRVPSYDPLKMDEVYKVILPNFLANGGDGFQMIKDELLRHDSGDQDINVVSTYISKMKVIYPAVEGRIKFSTGSHCHGSFSLIFLSLWAVIFVLYQ
For the protein B2, the Michaelis-Menten constant (Km) in series [2] is given as 14.8 ± 2.1 µM.
